Results on 4 molecules are retold here after patent US20120172293A1 (Takeda / Millennium, published 2012).

Non-standard residues stand in square brackets, D forms with d. No end group written: not given here. Cha = N[C@@H](CC1CCCCC1)C(=O)O; 4Amb = NCc1ccc(C(=O)O)cc1; Abu = CC[C@H](N)C(=O)O; Aib = CC(C)(N)C(=O)O; Ahx = NCCCCCC(=O)O

The target in assay [1] is T1, human Y2 receptor (human, UniProt P49146 1-381).
T1 construct: whole, on cells; used as membrane fraction of CHO/dhfr- cells stably expressing hY2R; also called hY2R; human NPY2R
T1 sequence (looked up): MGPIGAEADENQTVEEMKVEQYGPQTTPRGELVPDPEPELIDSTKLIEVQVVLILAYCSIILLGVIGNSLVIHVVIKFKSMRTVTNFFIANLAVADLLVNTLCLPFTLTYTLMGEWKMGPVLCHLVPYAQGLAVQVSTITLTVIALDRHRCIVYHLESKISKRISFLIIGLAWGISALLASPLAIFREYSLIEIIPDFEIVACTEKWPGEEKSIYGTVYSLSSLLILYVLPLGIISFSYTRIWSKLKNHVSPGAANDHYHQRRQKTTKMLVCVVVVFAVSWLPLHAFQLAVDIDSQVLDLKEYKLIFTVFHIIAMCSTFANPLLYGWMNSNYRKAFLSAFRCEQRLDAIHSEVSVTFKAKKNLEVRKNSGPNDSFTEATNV
Kind of assay: RBA: displacement of [125I]-PYY from hY2R/CHO membranes. On the procedure:
After incubation at room temperature for 60 minutes, the mixture was filtered through the cell harvester FilterMate (PerkinElmer) using UniFilter-96 GF/C treated with polyethylenimine (PEI) solution (20 mM Tris, 0.3% PEI, pH 7.4), and the filter was washed 3 times with a filtering buffer (50 mM Tris, 5 mM MgCl₂, 150 mM NaCl, 0.03% NaN₃, 0.05% CHAPS, pH 7.4). Thereafter, UniFilter-96 GF/C was dried in a mechanical drier for 1 hour, 15 μl of the liquid scintillator MicroScint O (PerkinElmer) was added to each well, and a measurement was taken using TopCount (PerkinElmer). The data obtained were analyzed using Prism to calculate the IC₅₀ value.

For assay [2], the target named is T1, human Y2 receptor. The experiment in a line: cell-based or functional assay.
Assay [3] has as its target T2, human Y2 receptor (human), P49146.
T2 chain: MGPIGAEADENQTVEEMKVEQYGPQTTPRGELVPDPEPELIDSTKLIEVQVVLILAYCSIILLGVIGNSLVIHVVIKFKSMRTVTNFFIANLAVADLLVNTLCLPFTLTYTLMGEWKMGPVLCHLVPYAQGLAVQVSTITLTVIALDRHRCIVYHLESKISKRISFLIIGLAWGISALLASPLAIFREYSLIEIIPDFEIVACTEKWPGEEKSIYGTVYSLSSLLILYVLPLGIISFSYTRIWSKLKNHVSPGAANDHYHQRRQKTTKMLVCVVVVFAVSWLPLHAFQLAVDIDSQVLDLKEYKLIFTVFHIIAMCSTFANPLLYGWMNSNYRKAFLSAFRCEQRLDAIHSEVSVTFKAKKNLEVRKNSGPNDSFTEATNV
The experiment in a line: RBA: [125I]-PYY displacement, hY2R/CHO membranes.

Assay [4] shares this target. Kind of assay: cell-based or functional assay.

B1: [Ile22,28,31, Lys23, Acp24, Ala26]-PYY(22-36) (peptide)
peptide: IK[Ahx]RAYINLITRQRY-NH2
modifications: N-terminus assumed
SMILES: CC[C@H](C)[C@H](N)C(=O)N[C@@H](CCCCN)C(=O)NCCCCCC(=O)N[C@@H](CCCNC(=N)N)C(=O)N[C@@H](C)C(=O)N[C@@H](Cc1ccc(O)cc1)C(=O)N[C@H](C(=O)N[C@@H](CC(N)=O)C(=O)N[C@@H](CC(C)C)C(=O)N[C@H](C(=O)N[C@H](C(=O)N[C@@H](CCCNC(=N)N)C(=O)N[C@@H](CCC(N)=O)C(=O)N[C@@H](CCCNC(=N)N)C(=O)N[C@@H](Cc1ccc(O)cc1)C(N)=O)[C@@H](C)O)[C@@H](C)CC)[C@@H](C)CC
notes: also called compound No. 353
For the molecule B1, in the assay with human Y2 receptor [1], the “IC50 Ratio” value is 9.1 IC50 compound/IC50 PYY(3-36). In addition, in the assay with human Y2 receptor [2], the “GBA EC50 Ratio ([35S]GTPγS binding)” value was 4.8 EC50 compound/EC50 PYY(3-36).

B2: 4-Aminomethylbenzoyl-[Ala26, ILe28,31, Abu32]-PYY(25-36) (peptide)
peptide: [4Amb]RAYINLI[Abu]RQRY-NH2
modifications: N-terminus assumed
SMILES: CC[C@H](NC(=O)[C@@H](NC(=O)[C@H](CC(C)C)NC(=O)[C@H](CC(N)=O)NC(=O)[C@@H](NC(=O)[C@H](Cc1ccc(O)cc1)NC(=O)[C@H](C)NC(=O)[C@H](CCCNC(=N)N)NC(=O)c1ccc(CN)cc1)[C@@H](C)CC)[C@@H](C)CC)C(=O)N[C@@H](CCCNC(=N)N)C(=O)N[C@@H](CCC(N)=O)C(=O)N[C@@H](CCCNC(=N)N)C(=O)N[C@@H](Cc1ccc(O)cc1)C(N)=O
notes: also called compound No. 354
In the case of B2, the “IC50 Ratio” value with human Y2 receptor [1] is 68 IC50 compound/IC50 PYY(3-36). The “GBA EC50 Ratio ([35S]GTPγS binding)” value with human Y2 receptor [2] is 33 EC50 compound/EC50 PYY(3-36).

B3: Ac-[D-Tyr21, D-Pro24, Cha27,28,36, Aib31]-PYY(20-36) (peptide)
peptide: Ac-Y[dY]AS[dP]RH[Cha][Cha]NL[Aib]TRQR[Cha]-NH2
SMILES: CC(=O)N[C@@H](Cc1ccc(O)cc1)C(=O)N[C@H](Cc1ccc(O)cc1)C(=O)N[C@@H](C)C(=O)N[C@@H](CO)C(=O)N1CCC[C@@H]1C(=O)N[C@@H](CCCNC(=N)N)C(=O)N[C@@H](Cc1c[nH]cn1)C(=O)N[C@@H](CC1CCCCC1)C(=O)N[C@@H](CC1CCCCC1)C(=O)N[C@@H](CC(N)=O)C(=O)N[C@@H](CC(C)C)C(=O)NC(C)(C)C(=O)N[C@H](C(=O)N[C@@H](CCCNC(=N)N)C(=O)N[C@@H](CCC(N)=O)C(=O)N[C@@H](CCCNC(=N)N)C(=O)N[C@@H](CC1CCCCC1)C(N)=O)[C@@H](C)O
notes: also called compound No. 355
For B3, the “IC50 Ratio” value with human Y2 receptor [1] was 1.4 IC50 compound/IC50 PYY(3-36). Further, in the assay with human Y2 receptor [2], the “GBA EC50 Ratio ([35S]GTPγS binding)” value is 1.1 EC50 compound/EC50 PYY(3-36).

B4: 4-Aminomethylbenzoyl-[Ala26, Ile28, VAl31]-PYY(25-36) (peptide)
peptide: [4Amb]RAYINLVTRQRY
modifications: ends and bridges not checked
On to B4, for which the IC50 Ratio (vs PYY(3-36)) in assay [3] amounted to 7.2. Also, the GBA EC50 Ratio (vs PYY(3-36)), [35S]GTPγS in assay [4] came to 4.
